From publication PMC2116414

Target: Acanthamoeba myosin-II (Acanthamoeba)
Experiment: electron microscopy

Q: With Acanthamoeba myosin-II (complex) as the substance, how does the stoichiometry N read?
A: 8
